Consider nine molecules from patent publication US20110165066A1 (AbbVie / Abbott, published 2011).

Positions count from the first letter of the chain named.

T1: mouse IL-13 (mouse, UniProt P20109 26-131, limits assumed)
T1 construct: also called mIL-13; murine IL-13
T1 sequence (looked up): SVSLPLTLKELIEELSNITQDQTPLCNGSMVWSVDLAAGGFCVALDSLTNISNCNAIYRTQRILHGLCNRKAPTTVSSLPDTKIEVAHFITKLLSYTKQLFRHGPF

B1: 5F1 (antibody, V domains shown)
VH: QVQLQQSGAELARPGTSVKLSCKASGYTFTTYGISWVKQRTGQGLEWIGEIYPGSYNTYYNEKFRGKATLTADKSSSTAYMQLSSLTSEDSAVYFCSRWRTSYFSDYGYFDYWGQGTTLTVSS
VL: DVVMTQTPLSLPVSLGDQASISCRSSQSLVHSHGNTYLHWYLQKPGQSPKLLIYTVSNRFSGVPDRFSGSGSGTDFTLKISRVEAEDLGVYFCSQSTHVPYTFGGGTKLEIKR
B2: 5G1 (antibody, V domains shown)
VH: B1 VH with I34V, S55N
VL: B1 VL
B3: 29G5 (antibody, V domains shown)
VH: QVTLKESGPGILQPSQTLSLTCSFSGFSLSTSDMGVDWIRQPSGKDLEWLAHIWWDDVKRYNPALKSRLTISKDTSSSQVFLMLASVDTADTATYYCARIVSSGYIYYALDYWGQGTSVTVSS
VL: DIQMTQTASSLSASLGDRVTISCRASQDIRNYLNWYQRKPDGTVKLLIYYTSRLHSGVPSRFSGSGSGTDYSLTISNLEQEDIATYFCQQGNTLPLTFGGGTKLEIKR
B4: 33C3 (antibody, V domains shown)
VH: B3 VH with M34L, D37G, D46G, L84I, V101G, A109E, L110M
VL: B3 VL with A8T, S22T, R38Q, E79D, K103R
B5: 1B6 (antibody, V domains shown)
VH: QVQLKESGPGLVAPSQSLSITCTVSGFSLTGYGVNWVRQPPGKGLEWLGMIWGDERIDYNSALKSRLSITKDNSKSQVFLKMNSLQTDDTGRYFCARDGYFPYAMDYWGQGTSVTVSS
VL: NIVLTQSPASLAVSLGQRATISCRASETVDSYGKSYLHWYQQKPGQPPKLLIYLASNLESGVPARFSGSGSRTDFTLIIDPVEADDAATYYCQQNNEGPRTFGGGTKLEIKR
B6: 6C8 (antibody, V domains shown)
VH: B5 VH with G26E, Y32S, G33S, E55G, T70S, G91A, F94Y, F101Y, D106N
VL: B5 VL with T28S, K34N, Y36F, L37M, T73A, I78T, G98N
B7: 3E5 (antibody, V domains shown)
VH: QVQLKESGPGLVAPSQSLSITCTVSGFSLTGSSINWVRQPPGKGLEWLGMIWGDGRIDYNSVLKSRLSISKDSSKSQVFLKMNSLQADDTARYYCARDGYYPYAMVYWGQGTSVTVSS
VL: B5 VL with S22F, T28S, K34N, Y36F, L37M, P44S, I78T, Y90F, G98N
B8: 4A8 (antibody, V domains shown)
VH: EVQLQQSGAEFVRPGALVKLSCKASGFNIKDYYMYWVKQRPEQGLEWIGRIDPENGNTIYDPKFQGKASITGDTSSNTAYLQLSSLTSEDTAVYYCARYAYYGPFDYWGQGTTLTVSS
VL: QAVVTQESALTTSPGETVTLTCRSSIGTVTTNNYANWVQEKPDHLFTGLIGSTNNRAPGVPARFSGSLIGDKAALTITGAQTEDEAIYFCALWYSNHWVFGGGTKLTVLG
B9: 8B6 (antibody, V domains shown)
VH: QVQLKESGPGLVAPSQSLSITCTVSGFSLTGHNINWVRQPPGKGLEWLGMIWGDGNTDFNSALKSRLSISKDNSKSQVFLKLNSLQTDDTARYYCARDGYYPYAIKFWGQGTSVTVSS
VL: B5 VL with N1H, K34S, Y36F, N57K, I78T, T106S

T3 sequence (P35225 35-146 limits assumed, stated change not applied): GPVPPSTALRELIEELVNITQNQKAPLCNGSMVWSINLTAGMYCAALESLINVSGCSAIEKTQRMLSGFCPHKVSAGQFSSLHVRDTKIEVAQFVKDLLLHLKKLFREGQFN
T2 sequence (P35225 other isoform, or with tags, fused parts or gaps limits assumed): as the sequence (P35225 35-146 limits assumed, stated change not applied) above, with Q110R counted along it
Chain of cynomolgus IL-13 (Q0PW92 entry or part of it): as the sequence (P35225 35-146 limits assumed, stated change not applied) above, with G1S, R10K, M42V, S67N, H83R, L100V counted along it

The first test concerns the target T2, human IL-13 wild type (human, UniProt P35225 35-146). The experiment in a line: cell-based or functional assay.
For B1, the “Average IC50, IL-13-induced TARC production by A-549 cells” value (“Average IC50” below) is 97 pM.
Consider B2, for which the “Average IC50” value was 76 pM.
Still for that read-out and setting: the figure for B3 is 290 pM.
The same measure, in the same setting: next, B4: 150 pM.
In the case of B5, the “Average IC50” value worked out at 840 pM.
Same read-out and setting: the figure for B6 is 720 pM; for B7 it is 130 pM.

A further test concerns the target T3, human IL-13 variant (R130Q) (human, UniProt P35225 35-146). The experiment in a line: cell-based or functional assay.
Consider B1, for which the “Average IC50” value came to 90 pM.
Same read-out and setting: the figure for B2 is 48 pM; for B3 it is 200 pM; for B4 it is 100 pM.
B8: the “Average IC50” value was found to be 270 pM.
On the same count and under the same terms, the figure for B5 is 240 pM; for B6 it is 340 pM; for B9 it is 480 pM.
On the same count and under the same terms, the figure for B7 is 300 pM.

Another test addresses cynomolgus IL-13 (cynomolgus, UniProt Q0PW92 21-132). The experiment in a line: cell-based or functional assay.
Turning to B1, the “Average IC50” value is 1880 pM.
The same measure, in the same setting: next, B2: 612 pM; B3: 4390 pM.
Still for that read-out and setting: the figure for B4 is 847 pM.
On the same count and under the same terms, next, B5: 521 pM; B6: 161 pM.
For B9, the “Average IC50” value came out at 395 pM.
On to B7, for which the “Average IC50” value amounted to 161 pM.

The target in the next test is T2, human IL-13 wild type. The experiment in a line: SPR (Biacore), mAb captured, IL-13 as analyte. How it is done: (§1) The BIACORE assay (Biacore, Inc, Piscataway, N.J.) determines the affinity of antibodies with kinetic measurements of on-, off-rate constants. […] All chemicals were obtained from Biacore® AB (Uppsala, Sweden) or otherwise from a different source as described in the text. Approximately 5000 RU of goat anti-mouse IgG, (Fcγ), fragment specific polyclonal antibody (Pierce Biotechnology Inc, Rockford, Ill.) diluted in 10 mM sodium acetate (pH 4.5) was directly immobilized across a CM5 research grade biosensor chip using a standard amine coupling kit according to manufacturer's instructions and procedures at 25 μg/ml. Unreacted moieties on the biosensor surface were blocked with ethanolamine. Modified carboxymethyl dextran surface in flowcell 2 and 4 was used as a reaction surface. Unmodified carboxymethyl dextran without goat anti-mouse IgG in flow cell 1 and 3 was used as the reference surface. For kinetic analysis, rate equations derived from the 1:1 Langmuir binding model were fitted simultaneously to association and dissociation phases of all eight injections (using global fit analysis) with the use of Biaevaluation 4.0.1 software. Purified antibodies were diluted in HEPES-buffered saline for capture across goat anti-mouse IgG specific reaction surfaces. Mouse antibodies to be captured as a ligand (25 μg/ml) were injected over reaction matrices at a flow rate of 5 μl/min. The association and dissociation rate constants, kₒₙ (unit M⁻¹s⁻¹) and koff (unit s⁻¹) were determined under a continuous flow rate of 25 μl/min Rate constants were derived by making kinetic binding measurements at ten different antigen concentrations ranging from 10-200 nM. […] Binding is recorded as a function of time and kinetic rate constants are calculated.
Take B1: the dissociation constant Kd (as a rule, a measure of binding affinity in units of concentration) amounted to 28.9 pM; the koff (commonly the rate constant with which the complex falls apart) came to 2.24e-05 s⁻¹; the kon (as a rule, the rate constant with which the complex forms) worked out at 774000 M⁻¹ s⁻¹.
For B2 the same measures were 8.77 pM, 5.49e-06 s⁻¹ and 626000 M⁻¹ s⁻¹.
Taken in the same sequence, the figures for B3 were 204 pM, 0.000175 s⁻¹ and 859000 M⁻¹ s⁻¹.
Taken in the same sequence, the figures for B4 were 63.9 pM, 0.000149 s⁻¹ and 2.33e+06 M⁻¹ s⁻¹.
With B8, binding was characterised by a dissociation constant (Kd) of 89 pM.
B5 came in with a Kd of 545 pM, a koff of 0.000518 s⁻¹ and a kon of 951000 M⁻¹ s⁻¹.
For B6 the same measures were 484 pM, 0.000702 s⁻¹ and 1.45e+06 M⁻¹ s⁻¹.
For B9, binding was put at a Kd of 523 pM, the koff was found to be 0.000607 s⁻¹ and the kon stood at 1.16e+06 M⁻¹ s⁻¹.
Taken in the same sequence, the figures for B7 were 457 pM, 0.000658 s⁻¹ and 1.44e+06 M⁻¹ s⁻¹.

Another test concerns the target T3, human IL-13 variant (R130Q). The experiment in a line: SPR (Biacore), mAb captured, IL-13 as analyte. Here is the method:
as §1
On the technique in general: SPR reads the build-up and loss of mass on a sensor chip optically.
Regarding B1, binding was characterised by a dissociation constant (Kd) of 31.4 pM, the koff worked out at 1.57e-05 s⁻¹ and the kon was found to be 502000 M⁻¹ s⁻¹.
For B2 the same measures were 130 pM, 2.05e-05 s⁻¹ and 157000 M⁻¹ s⁻¹.
For B3 the same measures were 329 pM, 0.000104 s⁻¹ and 316000 M⁻¹ s⁻¹.
B4: binding was put at a Kd of 124 pM, the koff was 9.59e-05 s⁻¹ and the kon was 770000 M⁻¹ s⁻¹.
For B8, the dissociation constant Kd worked out at 157 pM.
Take B5: binding was put at a Kd of 210 pM, the koff turned out to be 0.000222 s⁻¹ and the kon was 1.06e+06 M⁻¹ s⁻¹.
Molecule B6 yielded a Kd of 403 pM, a koff of 0.000394 s⁻¹ and a kon of 978000 M⁻¹ s⁻¹.
Molecule B9 came in with a Kd of 976 pM, a koff of 0.00096 s⁻¹ and a kon of 983000 M⁻¹ s⁻¹.
For B7 the same measures were 253 pM, 0.000468 s⁻¹ and 1.85e+06 M⁻¹ s⁻¹.

Another test deals with T1, mouse IL-13. The experiment in a line: indirect ELISA, captured mAb, biotinylated mouse IL-13. Here is the method:
Murine anti-human IL-13 mAbs were prepared at various concentrations ranging from 0.1 to 100 ng/ml in PBS containing 0.1% BSA; 50 ul of each antibody dilution was added to the coated ELISA plate and incubated for 1 hour at room temperature. Wells were washed 3 times with PBS containing 0.05% Tween-20. […] Wells were washed 3 times with PBS containing 0.05% Tween-20. Streptavidin HRP (Pierce #21126, Rockland, Ill.) was diluted 1:20000 in PBS containing 0.1% BSA; […] was added and the plates incubated for 1 hour at room temperature. Plates were washed 3 times with PBS containing 0.05% Tween-20. Fifty microliters of TMB solution (Sigma # T0440, St. Louis, Mo.) was added to each well and incubated for 10 minutes at room temperature. The reaction was stopped by addition of 1N sulphuric acid. Plates were read spectrophotmetrically at a wavelength of 450 nm.
In general terms: ELISA stands for enzyme-linked immunosorbent assay.
For B1, the binding result is reported as “no binding (tested: 0.1 to 100 ng/ml)”.
Still for that read-out and setting: next, B2: “no binding (tested: 0.1 to 100 ng/ml)”; B3: “no binding (tested: 0.1 to 100 ng/ml)”.
On the same count and under the same terms, the entry for B4 is “no binding (tested: 0.1 to 100 ng/ml)”; for B8 it is “no binding (tested: 0.1 to 100 ng/ml)”.
Same read-out and setting: the entry for B5 is “no binding (tested: 0.1 to 100 ng/ml)”; for B6 it is “no binding (tested: 0.1 to 100 ng/ml)”.
With B9, the binding result is reported as “no binding (tested: 0.1 to 100 ng/ml)”.
Same read-out and setting: the entry for B7 is “no binding (tested: 0.1 to 100 ng/ml)”.
